Target: T1, CKMB(PAJ18) (human, UniProt P06732 1-381; P12277 1-381)
T1 construct: Antigen reagent named only as CKMB(PAJ18); Its source and construct are not described; also called 杂化型肌酸激酶同工酶; CKMB抗原
Test: biolayer interferometry, antibody captured on AMC sensor, CKMB in solution

T1 sequence (P06732 whole entry, chain 1 of 2): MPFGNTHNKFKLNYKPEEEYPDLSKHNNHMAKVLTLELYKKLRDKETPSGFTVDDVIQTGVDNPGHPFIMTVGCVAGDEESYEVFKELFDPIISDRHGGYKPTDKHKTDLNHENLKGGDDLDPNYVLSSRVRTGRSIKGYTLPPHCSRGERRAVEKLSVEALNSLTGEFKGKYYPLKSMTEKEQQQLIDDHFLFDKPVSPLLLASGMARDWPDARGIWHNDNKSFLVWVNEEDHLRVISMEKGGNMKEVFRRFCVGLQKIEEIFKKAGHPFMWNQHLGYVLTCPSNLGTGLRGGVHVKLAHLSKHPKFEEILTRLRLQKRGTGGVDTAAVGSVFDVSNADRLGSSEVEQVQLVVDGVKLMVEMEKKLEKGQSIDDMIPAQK
T1 sequence (P12277 whole entry, chain 2 of 2): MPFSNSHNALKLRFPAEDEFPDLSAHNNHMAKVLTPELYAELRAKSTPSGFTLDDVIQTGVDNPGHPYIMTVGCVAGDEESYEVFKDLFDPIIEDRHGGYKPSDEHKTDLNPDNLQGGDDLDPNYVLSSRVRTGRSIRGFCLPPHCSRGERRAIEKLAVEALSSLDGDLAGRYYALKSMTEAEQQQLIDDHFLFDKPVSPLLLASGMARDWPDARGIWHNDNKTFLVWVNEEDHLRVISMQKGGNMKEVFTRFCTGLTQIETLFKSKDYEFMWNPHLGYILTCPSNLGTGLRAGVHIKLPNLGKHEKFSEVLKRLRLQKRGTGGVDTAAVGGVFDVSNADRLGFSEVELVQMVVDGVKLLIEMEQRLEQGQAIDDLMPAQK

Kd: 77.6 nM
koff: 0.00512 s⁻¹
kon: 66000 M⁻¹ s⁻¹
B1: Anti-CKMB 10C5 recombinant antibody (WT) (antibody, V domains shown)
VH: DVQLQESGPGLVKPSQTMSLTCTVTGVSITTGTDRWSWIRQFPGNKLEWIGYIFYSGTLTYNPSVTSRTTITRDTSKNQFFLEMNSLTAEDTATYYCARERTYYPYGYFDVFGTGTTVTVSS
VL: DIQMNQSPSSLSASLGDTITITCHGSNNINIWLSWYQQKPGNTPKLLIYKGSDIHTGVSSRFSGSGSGTAFTLTISSLQPEDIATYYCQQAQSYAWTWGGGTKLEIK
